Data reported in US20130022551A1 (TRUSTEES OF BOSTON UNIVERSITY, published 2013).
Blank lines part the entries; values can stand above or below the molecule they belong to.

What was measured:
[1] = molecular target: T1, human dual endothelin-1/VEGF signal peptide receptor (hDEspR) (human) (UniProt B0L3A2); assay: microbubble adherence to HUVECs, isotype control at 800× MB to cell ratio
T1 sequence: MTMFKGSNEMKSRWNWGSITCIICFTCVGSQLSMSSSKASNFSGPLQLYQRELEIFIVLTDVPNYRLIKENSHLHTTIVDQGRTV

rat DEspR (rat) = rat DEspR (rat) (UniProt D3ZGZ6); assay: in vivo contrast-enhanced ultrasound of carotid arteries, pre-/post-destruction difference, isotype control microbubbles in Tg25+ rats
[2] = molecular target: T1, human dual endothelin-1/VEGF signal peptide receptor (hDEspR) (human); assay: cell-based or functional assay
[3] = molecular target: T2, human dual endothelin-1/VEGF signal peptide receptor (hDEspR) (human, UniProt B0L3A2 1-85); assay: cell-based or functional assay
T2 sequence: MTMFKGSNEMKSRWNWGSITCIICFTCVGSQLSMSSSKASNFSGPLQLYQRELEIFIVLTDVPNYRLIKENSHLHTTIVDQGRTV

[4] = molecular target: T3, antigenic hDEspR 9-aa peptide, NH2-terminal 9 amino acids of hDEspR (human); assay: indirect ELISA, free hDEspR 9-aa peptide coated on the plate, hybridoma supernatant at 1 ug/ml in two-fold serial dilutions (1 = 1/2 ... 12 = 1/4096), HRP anti-IgG, OD450
T3 construct: Free peptide coated directly on ELISA wells; The KLH conjugate was used only for immunisation; also called DEspR(1-9)
T3 peptide: MTMFKGSNE
Description: Monoclonal antibody characterization by ELISA and Western blot analysis. The M₁[…]₉ antigenic peptide was coated directly on wells of a microtiter plate. Appropriate dilutions of primary antibodies were incubated at 37° C. for 1 hr. The wells were then incubated with HRP labeled anti-IgG (SIGMA cat#A0168) at 1:9000 at 37° C. for 1 hr. The reactions were visualized by the addition of 3,3′5,5′-tetramethylbenzidine substrate (incubation at 37° C. for 10 min) and read spectrophotometrically at 450 nm. Western blot analysis was done as described using equal amounts of whole cell protein extract (40 μg) from Cos1 cell transfectants stably expressing hDEspR[17] and corresponding candidate monoclonal antibodies raised against hDEspR specific synthetic peptide. Immunoreactive hDEspR (10 kDa polypeptide) was detected by chemiluminescence using the ECL Western Detection kit (GE Healthcare).

% of HUVECs bound [1]: 6.8%
Contrast intensity signal Δ (rat DEspR (rat)): 1.9
Molecule: control isotype-targeted microbubbles (MBC)

BRCA1 S1497 phosphorylation, % change from control (antibody microarray, Cos1-hDEspR, 30 min, 10 nM) [2]: 32 % CFC
CDK1/2 T14/Y15 phosphorylation, % change from control [2]: 53 % CFC
CDK1/2 Y15 phosphorylation, % change from control [2]: 281 % CFC
ERK1/2 T202 + Y204; T185 + Y187 phosphorylation, % change from control [2]: 135 % CFC
FAK S722 phosphorylation, % change from control [2]: 55 % CFC
FAK S732 phosphorylation, % change from control [2]: 62 % CFC
FAK panspecific (expression), % change from control [2]: 205 % CFC
Met panspecific (expression), % change from control [2]: 384 % CFC
PCNA panspecific (expression), % change from control [2]: -47 % CFC
PKCa T638/T641 phosphorylation, % change from control [2]: 137 % CFC
PKCe panspecific (expression), % change from control [2]: 103 % CFC
Raf1 S259 phosphorylation, % change from control [2]: 12 % CFC
SHP2 S576 phosphorylation, % change from control [2]: 14 % CFC
STAT1 S727 phosphorylation, % change from control [2]: 86 % CFC
STAT1 Y701 phosphorylation, % change from control [2]: 95 % CFC
STAT3 S727 phosphorylation, % change from control [2]: 133 % CFC
Shc1 (ShcA) Y349, Y350 phosphorylation, % change from control [2]: 9 % CFC
Smad 1/5/9 S463 + S465/S465 + S467 phosphorylation, % change from control [2]: 18 % CFC
Src Y418 phosphorylation, % change from control [2]: -11 % CFC
Src Y529 phosphorylation, % change from control [2]: -20 % CFC
Molecule: endothelin-1 (ET1) (from UniProt P05305 53-73) (ligand)

EC50, inhibition of MDA-MB-468 tumor cell invasiveness [3]: 3.55 nM
EC50 for # branching points, inhibition of serum-induced HUVEC tubulogenesis [3]: 3.97 nM
EC50 for total tube length, inhibition of serum-induced HUVEC tubulogenesis [3]: 4.34 nM
binding result [4]: binds
B1: anti-hDEspR 7C5B2 monoclonal antibody (antibody, IgG2b, V domains shown)
VH: QVQLKESGPGLVAPSQSLSITCTVSGFSLTSYDISWIRQPPGKGLEWLGVIWTGGGTNYNSAFMSRLSISKDNSKSQVFLKMNSLQTDDTAIYYCVRDRDYDGWYFDVWGAGTTVTVSS
VL: DVLMTQTPLSLPVSLGDQASISCRSSQSIVHSNGNTYLEWYLQKPGQSPKLLIYKVSNRFSGVPDRFSGSGSGTDFTLKISRVEAEDLGVYYCFQGSHVPYTFGGGTKLEIK
notes: Tested as hybridoma supernatant and as purified antibody; also called 7C5B2 antibody; 7C5B2 anti-DEspR antibody
